Test results: patent US20260248892A1 (Sanofi, published 2026)

Columns and labels:
Assay in all cases: cell-based or functional assay
Rat IR = Rat IR (rat, UniProt P15127 27-1383)
[1] = biological target: human insulin receptor isoform B (human, UniProt P06213 28-1382)
[2] = biological target: human insulin receptor isoform A (human, UniProt P06213-2 28-1370)
Pig IR = Pig IR (pig, UniProt F1SCL0 28-1382)

Rat IR, sequence (P15127 27-1383): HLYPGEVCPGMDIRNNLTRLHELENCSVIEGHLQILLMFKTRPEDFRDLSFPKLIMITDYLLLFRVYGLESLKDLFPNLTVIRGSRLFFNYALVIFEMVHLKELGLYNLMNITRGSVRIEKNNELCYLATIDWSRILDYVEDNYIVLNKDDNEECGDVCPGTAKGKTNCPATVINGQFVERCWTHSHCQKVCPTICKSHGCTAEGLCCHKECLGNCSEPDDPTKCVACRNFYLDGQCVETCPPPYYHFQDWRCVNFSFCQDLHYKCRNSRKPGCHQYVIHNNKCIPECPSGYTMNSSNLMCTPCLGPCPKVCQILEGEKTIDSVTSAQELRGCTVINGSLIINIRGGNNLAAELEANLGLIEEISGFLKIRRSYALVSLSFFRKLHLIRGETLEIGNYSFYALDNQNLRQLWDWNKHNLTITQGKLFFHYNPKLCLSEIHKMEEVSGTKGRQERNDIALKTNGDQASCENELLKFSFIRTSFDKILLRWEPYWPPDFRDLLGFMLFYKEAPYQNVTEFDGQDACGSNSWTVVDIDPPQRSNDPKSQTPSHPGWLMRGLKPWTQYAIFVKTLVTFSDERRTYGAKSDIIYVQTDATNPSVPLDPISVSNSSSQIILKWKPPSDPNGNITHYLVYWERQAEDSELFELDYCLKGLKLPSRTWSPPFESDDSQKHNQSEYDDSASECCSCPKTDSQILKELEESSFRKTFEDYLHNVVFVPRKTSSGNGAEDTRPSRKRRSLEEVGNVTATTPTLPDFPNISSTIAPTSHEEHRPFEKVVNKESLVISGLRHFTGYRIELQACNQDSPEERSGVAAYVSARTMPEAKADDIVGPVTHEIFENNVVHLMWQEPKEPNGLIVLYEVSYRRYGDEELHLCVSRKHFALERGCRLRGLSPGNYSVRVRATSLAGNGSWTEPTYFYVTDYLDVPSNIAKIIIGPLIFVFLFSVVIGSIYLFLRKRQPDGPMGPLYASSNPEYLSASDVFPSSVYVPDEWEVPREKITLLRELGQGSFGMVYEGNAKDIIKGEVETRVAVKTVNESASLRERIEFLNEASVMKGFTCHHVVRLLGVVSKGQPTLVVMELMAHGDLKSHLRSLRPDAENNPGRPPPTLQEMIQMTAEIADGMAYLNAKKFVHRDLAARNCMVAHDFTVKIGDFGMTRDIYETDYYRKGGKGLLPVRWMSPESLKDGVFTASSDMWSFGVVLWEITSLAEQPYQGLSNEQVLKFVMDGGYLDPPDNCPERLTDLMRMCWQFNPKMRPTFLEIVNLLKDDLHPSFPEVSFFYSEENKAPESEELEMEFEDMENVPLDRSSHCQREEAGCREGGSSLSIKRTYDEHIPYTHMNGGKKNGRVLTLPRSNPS

Row | Rat IR phosphorylation [EC50 nM] mean (Rat IR) | hIR-B-phosphorylation [EC50 nM] mean [1] | hIR-A phosphorylation [EC50 nM] mean [2] | Pig IR phosphorylation [EC 50 nM] mean (Pig IR) | Binder
1 | 381 nM | 59.8 nM | 408 nM | 29.9 nM | scl-Fc fusion protein INS023 (Fc fusion) SFVNQHLCGSHLVEALELVCGERGFHYTPKTGSYPGGVGIVEQCCTSICSLSQLENYCGGEAEDLQVGQVELGGGPGAGSLQPEGSLQGGPSVFLFPPKPKDTLMISRTPEVTCVVVDVSHEDPEVKFNWYVDGVEVHNAKTKPREEQYNSTYRVVSVLTVLHQDWLNGKEYKCKVSNKALPAPIEKTISKAKGQPREPQVYTLPPSRDELTKNQVSLTCLVKGFYPSDIAVEWESNGQPENNYKTTPPVLDSDGSFFLYSKLTVDKSRWQQGNVFSCSVMHEALHNHYTQKSLSLSPGGGGGSAESKYGPPCPPCPA
2 | 64.9 nM | 42.2 nM | 215 nM | 15.9 nM | scl-Fc fusion protein INS022 (Fc fusion) FVNQHLCGSHLVEALELVCGERGFHYTPKTGSYPGGVGIVEQCCTSICSLSQLENYCGGEAEDLQVGQVELGGGPGAGSLQPEGSLQGGPSVFLFPPKPKDTLMISRTPEVTCVVVDVSHEDPEVKFNWYVDGVEVHNAKTKPREEQYNSTYRVVSVLTVLHQDWLNGKEYKCKVSNKALPAPIEKTISKAKGQPREPQVYTLPPSRDELTKNQVSLTCLVKGFYPSDIAVEWESNGQPENNYKTTPPVLDSDGSFFLYSKLTVDKSRWQQGNVFSCSVMHEALHNHYTQKSLSLSPGGGGGSAESKYGPPCPPCPA
